From patent US20200247903A1
Blank lines part the entries; values can stand above or below the molecule they belong to.

Assays:
[1] = target: Band 3 antigen on mouse erythrocytes (mouse) (UniProt P04919); assay: flow cytometry on mouse RBCs (++++ = MFI > 500)
[2] = target: Mouse CD24 (Heat Stable Antigen, Ly-52, Nectadrin) on mouse erythrocytes (mouse) (UniProt P24807); assay: flow cytometry histogram on C57BL/6 mouse erythrocytes, PE-anti rat Ig; antibody quantity of this sample not given; RBC alone 2.80 [continued) I]
Chain of UniProt P24807 (P24807 27-53): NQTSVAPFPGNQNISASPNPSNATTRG

[3] = target: TER-119 antigen (Ly76, 52 kD glycophorin A-associated protein) on mouse erythrocytes (mouse); assay: as above
[4] = target: Mouse CD24 (Heat Stable Antigen, Ly-52, Nectadrin) on mouse erythrocytes (mouse) (UniProt P24807); assay: flow cytometry on mouse RBCs (++++ = MFI > 500)
[5] = target: TER-119 antigen (Ly76, 52 kD glycophorin A-associated protein) on mouse erythrocytes (mouse); assay: cell-based or functional assay
[6] = target: TER-119 antigen (Ly76, 52 kD glycophorin A-associated protein) on mouse erythrocytes (mouse); assay: flow cytometry on mouse RBCs (++++ = MFI > 500)
[7] = target: TER-119 antigen (Ly76, 52 kD glycophorin A-associated protein) on mouse erythrocytes (mouse); assay: flow cytometry saturation binding on RBCs
[8] = target: TER-119 antigen (Ly76, 52 kD glycophorin A-associated protein) on mouse erythrocytes (mouse); assay: flow cytometry on mouse RBCs (+++ = MFI > 250)

Chain of UniProt P04919 (P04919 whole entry): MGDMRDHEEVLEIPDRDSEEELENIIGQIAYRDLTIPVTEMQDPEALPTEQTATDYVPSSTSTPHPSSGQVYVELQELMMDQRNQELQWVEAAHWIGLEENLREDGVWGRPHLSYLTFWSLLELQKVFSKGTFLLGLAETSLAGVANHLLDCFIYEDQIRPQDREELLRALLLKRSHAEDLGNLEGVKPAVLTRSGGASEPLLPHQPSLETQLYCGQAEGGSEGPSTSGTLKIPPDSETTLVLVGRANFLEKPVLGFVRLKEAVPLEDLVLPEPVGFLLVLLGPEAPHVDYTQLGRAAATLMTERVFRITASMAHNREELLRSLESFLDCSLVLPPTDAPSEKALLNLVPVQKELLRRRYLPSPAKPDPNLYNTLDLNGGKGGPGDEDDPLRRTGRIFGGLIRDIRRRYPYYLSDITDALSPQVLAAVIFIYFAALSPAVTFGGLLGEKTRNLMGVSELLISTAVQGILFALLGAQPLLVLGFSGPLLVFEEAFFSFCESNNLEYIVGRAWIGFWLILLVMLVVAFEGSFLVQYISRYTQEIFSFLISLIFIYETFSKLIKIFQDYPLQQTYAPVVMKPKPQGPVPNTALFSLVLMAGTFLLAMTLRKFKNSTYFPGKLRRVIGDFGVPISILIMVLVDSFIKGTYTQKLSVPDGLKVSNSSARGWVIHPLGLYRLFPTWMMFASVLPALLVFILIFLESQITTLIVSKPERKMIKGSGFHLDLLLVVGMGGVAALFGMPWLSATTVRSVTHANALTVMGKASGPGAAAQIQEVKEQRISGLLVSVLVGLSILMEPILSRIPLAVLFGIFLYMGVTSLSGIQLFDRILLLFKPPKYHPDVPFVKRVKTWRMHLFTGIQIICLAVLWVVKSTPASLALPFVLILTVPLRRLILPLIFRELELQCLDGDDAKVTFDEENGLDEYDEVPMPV

MFI [1]: > 500 mfi
Molecule: 34-3C (anti-Band 3 mAb, mouse IgG2a) (antibody)

Median : YLW-HLog [2]: 2.76 | Median : YLW-HLog [3]: 2.76
Molecule: Isotype control (antibody)

Median : YLW-HLog [2]: 113 | MFI [4]: > 500 mfi
Molecule: M1/69 (rat IgG2b antibody to mouse CD24)

Median : YLW-HLog [3]: 112 | phagocytic index of TER-119 opsonized RBCs by RAW264.7 macrophages (lowest effective concentration) [5]: 1.25 µg/mL | phagocytic index of TER-119 opsonized RBCs by RAW264.7 macrophages (plateau) [5]: 5 µg/mL | MFI [6]: > 500 mfi | Kd [7]: 30 nM
B1: TER-119 antibody (rat IgG2b monoclonal antibody to the mouse TER-119 antigen) (antibody, V domains shown)
VH: EVKLQESGGGLVQPGGSLKLSCVASGFTFRDHWMNWVRQAPGKTMEWIGDIRPDGSDTNYAPSVRNRFTISRDNARSILYLQMSNMRSDYTATYYCVRDSPTRAGLMDAWGQGTSVTVSS
VL: DIQMTQSPSVLSASVGDRVTLNCKASQNINKYLNWYQQKLGEAPKVLIYNTNNLQTGIPSRFSGSGSGTDFTLTISSLQPEDFATYFCFQHYTWPTFGGGTKLEIKR

Median : YLW-HLog [3]: 126 | MFI [8]: 250 to 500 mfi
B2: Deglycosylated TER-119 (antibody, V domains shown)
VH: EVKLQESGGGLVQPGGSLKLSCVASGFTFRDHWMNWVRQAPGKTMEWIGDIRPDGSDTNYAPSVRNRFTISRDNARSILYLQMSNMRSDYTATYYCVRDSPTRAGLMDAWGQGTSVTVSS
VL: DIQMTQSPSVLSASVGDRVTLNCKASQNINKYLNWYQQKLGEAPKVLIYNTNNLQTGIPSRFSGSGSGTDFTLTISSLQPEDFATYFCFQHYTWPTFGGGTKLEIKR
modifications: Fc glycan removed (a variant without the Fc glycan)
